Source: PMC11094781 (Protein Science : A Publication of the Protein Society, 2024)

Tests used:
[1] = biological target: T1, TkTusA (Thioalkalivibrio sp. K90mix, UniProt D3SF79); experiment: MALDI-TOF mass shift; format: biochemical; conditions: […] tetrathionate, […] Tris-HCl pH […]; covalent
T1 sequence (D3SF79 2-76): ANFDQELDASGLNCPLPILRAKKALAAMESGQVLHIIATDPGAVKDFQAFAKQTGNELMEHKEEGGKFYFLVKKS

[2] = biological target: DsrE3B from Thioalkalivibrio sp. K90mix (Thioalkalivibrio sp. K90mix); experiment: SEC
[3] = biological target: DsrE3C from Hyphomicrobium denitrificans (Hyphomicrobium denitrificans); experiment: SEC

Question: How did the MALDI-TOF mass shift [1] turn out when `O=S(=O)(O)SSS(=O)(=O)O` [tetrathionate] was run?
Answer: The MALDI-TOF mass shift was “TusA proteins from bacteria that were examined in this study displayed reaction with tetrathionate”.

Question: For “DsrE3B from Thioalkalivibrio sp. K90mix (natural protein)”, which stoichiometry N [2] is on record?
Answer: Its stoichiometry N is 3.

Question: With “DsrE3C from Hyphomicrobium denitrificans (natural protein)” as the molecule, how does the stoichiometry N [3] read?
Answer: The stoichiometry N was 3.
